Measured values reported in PMC3985883 (Biochemistry, 2014).
One block for each molecule: values may come before it.

Legend:
[1] = target: class Ia RNR small subunit (Escherichia coli) (UniProt P69924); conditions: cited from earlier work
[2] = target: class Ia RNR small subunit (Homo sapiens) (UniProt P31350); conditions: cited from earlier work
[3] = target: T1, Bacillus subtilis class Ib ribonucleotide reductase NrdE (α subunit) (Bacillus subtilis, UniProt P50620 1-700); test: SEC
T1 sequence (looked up): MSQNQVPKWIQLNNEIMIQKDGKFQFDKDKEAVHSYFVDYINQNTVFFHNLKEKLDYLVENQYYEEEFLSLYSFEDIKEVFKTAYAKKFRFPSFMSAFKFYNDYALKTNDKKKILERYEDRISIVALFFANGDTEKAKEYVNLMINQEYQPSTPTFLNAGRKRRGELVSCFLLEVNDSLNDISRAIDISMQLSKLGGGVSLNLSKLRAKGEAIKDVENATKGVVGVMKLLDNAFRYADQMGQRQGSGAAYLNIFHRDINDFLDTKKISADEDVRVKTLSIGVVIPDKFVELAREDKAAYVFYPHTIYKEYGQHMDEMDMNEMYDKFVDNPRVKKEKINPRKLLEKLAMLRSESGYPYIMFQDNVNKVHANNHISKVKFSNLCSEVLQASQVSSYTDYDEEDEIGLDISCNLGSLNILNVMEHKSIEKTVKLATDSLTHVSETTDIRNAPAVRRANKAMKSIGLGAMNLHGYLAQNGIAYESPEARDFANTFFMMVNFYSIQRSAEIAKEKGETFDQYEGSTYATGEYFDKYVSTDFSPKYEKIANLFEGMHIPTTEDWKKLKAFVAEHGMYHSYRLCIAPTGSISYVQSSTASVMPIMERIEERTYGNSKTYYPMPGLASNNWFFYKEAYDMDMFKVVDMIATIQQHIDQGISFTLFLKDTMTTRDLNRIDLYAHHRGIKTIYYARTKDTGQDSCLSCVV

SEC = target: the molecule itself; test: SEC
AUC = target: the molecule itself; test: AUC

Sequence of class Ia RNR small subunit (Homo sapiens) (P31350 whole entry): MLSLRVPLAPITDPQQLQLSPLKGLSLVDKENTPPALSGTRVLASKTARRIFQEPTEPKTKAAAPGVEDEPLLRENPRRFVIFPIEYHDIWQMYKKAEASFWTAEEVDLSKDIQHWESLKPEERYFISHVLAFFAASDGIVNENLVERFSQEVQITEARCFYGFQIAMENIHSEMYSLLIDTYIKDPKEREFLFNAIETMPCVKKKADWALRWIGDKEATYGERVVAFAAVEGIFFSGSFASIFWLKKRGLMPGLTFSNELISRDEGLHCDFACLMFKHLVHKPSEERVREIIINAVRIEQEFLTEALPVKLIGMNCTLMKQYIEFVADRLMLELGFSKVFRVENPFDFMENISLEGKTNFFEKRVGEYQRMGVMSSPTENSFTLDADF
Sequence of class Ia RNR small subunit (Escherichia coli) (P69924 2-376): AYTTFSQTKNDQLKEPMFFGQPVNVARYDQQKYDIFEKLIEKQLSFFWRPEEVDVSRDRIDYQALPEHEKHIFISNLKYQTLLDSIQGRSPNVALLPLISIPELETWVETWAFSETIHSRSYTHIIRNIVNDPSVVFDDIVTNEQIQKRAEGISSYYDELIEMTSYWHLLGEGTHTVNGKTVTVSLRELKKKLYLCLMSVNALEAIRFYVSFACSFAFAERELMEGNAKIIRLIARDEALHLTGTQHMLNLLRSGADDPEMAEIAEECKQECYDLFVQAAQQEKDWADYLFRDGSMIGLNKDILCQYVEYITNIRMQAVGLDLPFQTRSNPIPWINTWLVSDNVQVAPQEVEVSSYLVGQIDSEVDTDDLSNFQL

Molecule: class Ia RNR large subunit (from UniProt P00452)
Kd [1]: 200 nM

Molecule: class Ia RNR large subunit (from UniProt P23921)
Kd [2]: 200 nM

More lines, main results first:

binding result [3]: binds
B1: Bacillus subtilis holo-Fe^III2-Y· NrdF (β subunit, diferric-tyrosyl radical cofactor) (enzyme, UniProt P50621 1-329, looked up)
chain: MTKIYDAANWSKHEDDFTQMFYNQNVKQFWLPEEIALNGDLLTWKYLGKNEQDTYMKVLAGLTLLDTEQGNTGMPIVAEHVDGHQRKAVLNFMAMMENAVHAKSYSNIFMTLAPTETINEVFEWVKQNKYLQKKAQMIVGLYKAIQKDDEISLFKAMVASVYLESFLFYSGFYYPLYFYGQGKLMQSGEIINLILRDEAIHGVYVGLLAQEIYNKQTEEKKAELREFAIDLLNQLYENELEYTEDLYDQVGLSHDVKKFIRYNANKALMNLGFDPYFEEEDINPIVLNGLNTKTKSHDFFSMKGNGYKKATVEPLKDDDFYFEDEKEQI
modifications: tyrosyl radical (about 1 Y· per β2); Fe^III2 cofactor (about 4 Fe per β2)
stoichiometry N (SEC): 2

binding result [3]: binds
B2: Bacillus subtilis holo-Mn^III2-Y· NrdF (β subunit, dimanganic-tyrosyl radical cofactor) (enzyme, UniProt P50621 1-329, looked up)
chain: MTKIYDAANWSKHEDDFTQMFYNQNVKQFWLPEEIALNGDLLTWKYLGKNEQDTYMKVLAGLTLLDTEQGNTGMPIVAEHVDGHQRKAVLNFMAMMENAVHAKSYSNIFMTLAPTETINEVFEWVKQNKYLQKKAQMIVGLYKAIQKDDEISLFKAMVASVYLESFLFYSGFYYPLYFYGQGKLMQSGEIINLILRDEAIHGVYVGLLAQEIYNKQTEEKKAELREFAIDLLNQLYENELEYTEDLYDQVGLSHDVKKFIRYNANKALMNLGFDPYFEEEDINPIVLNGLNTKTKSHDFFSMKGNGYKKATVEPLKDDDFYFEDEKEQI
modifications: tyrosyl radical (about 1 Y· per β2); Mn^III2 cofactor (about 4 Mn per β2)
stoichiometry N (AUC): 2
